From PMC3564804
Read-outs that look alike come from different tables or passages of the source.

Experiments:
[1] = molecular target: DS-PrPRes (Gdn-HCl treated PrPRes) (UniProt P04156)
PrPRes, native state = PrPRes, native state (UniProt P04156)

Sequence: GTTTTGTTACAGTTCGTTTCTTTTCCCTGTCTTGTTTTGTTGTCT [Apt2]
- binding signal (fluorescence ratio) ([1]; 5'-biotin): 4.74
- binding signal (fluorescence ratio) (PrPRes, native state; 5'-biotin): 1.69

Sequence: CTTACGGTGGGGCAATT [Apt1]
- binding signal (fluorescence ratio) ([1]; 5'-NH2): 4.74
- binding signal (fluorescence ratio) (PrPRes, native state; 5'-NH2): 1.69
